Measured values: patent US20250042956A1

What was measured:
[1] = target: T1, AT5G67580.1 TRB2 (Arabidopsis thaliana) (UniProt Q9FJW5); assay: X-link IP-MS
T1 sequence: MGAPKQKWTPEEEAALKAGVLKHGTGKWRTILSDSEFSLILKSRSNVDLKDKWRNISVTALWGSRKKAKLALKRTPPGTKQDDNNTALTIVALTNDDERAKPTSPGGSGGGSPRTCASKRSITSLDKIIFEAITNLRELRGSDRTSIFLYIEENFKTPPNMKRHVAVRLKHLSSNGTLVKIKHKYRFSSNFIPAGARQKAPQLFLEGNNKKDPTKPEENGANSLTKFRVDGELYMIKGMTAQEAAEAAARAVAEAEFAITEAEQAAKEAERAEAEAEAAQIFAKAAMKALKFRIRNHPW

[2] = target: T1, AT5G67580.1 TRB2 (Arabidopsis thaliana); assay: IP-MS rep 1
[3] = target: T1, AT5G67580.1 TRB2 (Arabidopsis thaliana); assay: IP-MS rep 2
[4] = target: AT4G20400.1 JMJ14 (Arabidopsis thaliana), Q8GUI6; assay: IP-MS rep 1; conditions: remark: other sources report otherwise
[5] = target: AT4G20400.1 JMJ14 (Arabidopsis thaliana), Q8GUI6; assay: IP-MS rep 2; conditions: remark: other sources report otherwise
[6] = target: AT4G20400.1 JMJ14 (Arabidopsis thaliana), Q8GUI6; assay: X-link IP-MS; conditions: remark: other sources report otherwise
[7] = target: T2, AT3G49850.1 TRB3 (Arabidopsis thaliana) (UniProt Q9M2X3); assay: X-link IP-MS
T2 sequence: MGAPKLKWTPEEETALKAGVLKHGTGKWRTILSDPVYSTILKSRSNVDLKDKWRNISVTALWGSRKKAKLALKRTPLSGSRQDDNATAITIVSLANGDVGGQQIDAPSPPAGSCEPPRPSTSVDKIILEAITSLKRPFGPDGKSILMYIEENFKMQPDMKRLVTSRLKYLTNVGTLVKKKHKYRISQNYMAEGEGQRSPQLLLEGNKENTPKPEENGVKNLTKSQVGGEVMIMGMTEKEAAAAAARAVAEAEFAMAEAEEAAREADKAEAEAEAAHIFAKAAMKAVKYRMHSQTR

[8] = target: T2, AT3G49850.1 TRB3 (Arabidopsis thaliana); assay: IP-MS rep 1
[9] = target: T2, AT3G49850.1 TRB3 (Arabidopsis thaliana); assay: IP-MS rep 2
[10] = target: T3, AT5G17690.1 LHP1 (Arabidopsis thaliana) (UniProt Q946J8); assay: IP-MS rep 1
T3 sequence: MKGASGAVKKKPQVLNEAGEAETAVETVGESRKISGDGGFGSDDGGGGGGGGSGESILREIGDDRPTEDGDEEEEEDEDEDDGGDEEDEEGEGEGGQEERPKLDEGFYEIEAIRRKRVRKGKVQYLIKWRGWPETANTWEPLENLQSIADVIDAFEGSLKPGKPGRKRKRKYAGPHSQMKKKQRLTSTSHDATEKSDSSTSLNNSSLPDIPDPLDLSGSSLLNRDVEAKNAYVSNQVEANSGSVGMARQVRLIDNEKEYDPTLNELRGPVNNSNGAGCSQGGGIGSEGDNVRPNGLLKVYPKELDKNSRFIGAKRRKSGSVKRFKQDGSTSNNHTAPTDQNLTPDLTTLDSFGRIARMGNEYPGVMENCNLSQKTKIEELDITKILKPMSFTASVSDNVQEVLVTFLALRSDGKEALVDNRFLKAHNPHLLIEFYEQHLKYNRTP

[11] = target: T3, AT5G17690.1 LHP1 (Arabidopsis thaliana); assay: IP-MS rep 2
[12] = target: T4, AT5G17690.1 LHP1 (Arabidopsis thaliana), Q946J8; assay: IP-MS rep 1; conditions: remark: other sources report otherwise
T4 chain: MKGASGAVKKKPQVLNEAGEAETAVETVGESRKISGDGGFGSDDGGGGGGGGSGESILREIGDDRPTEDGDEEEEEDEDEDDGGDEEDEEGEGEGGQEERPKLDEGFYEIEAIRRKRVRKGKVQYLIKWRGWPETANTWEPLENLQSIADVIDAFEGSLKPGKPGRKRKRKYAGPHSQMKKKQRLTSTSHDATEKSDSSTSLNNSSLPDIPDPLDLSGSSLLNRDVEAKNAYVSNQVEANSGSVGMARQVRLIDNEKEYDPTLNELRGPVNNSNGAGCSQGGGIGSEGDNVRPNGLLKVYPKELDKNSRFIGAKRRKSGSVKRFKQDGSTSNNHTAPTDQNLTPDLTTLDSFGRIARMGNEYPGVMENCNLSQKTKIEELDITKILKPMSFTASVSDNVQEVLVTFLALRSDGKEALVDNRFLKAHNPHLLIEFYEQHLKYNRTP

[13] = target: T4, AT5G17690.1 LHP1 (Arabidopsis …); assay: IP-MS rep 2; conditions: remark: other sources report otherwise
[14] = target: T4, AT5G17690.1 LHP1 (Arabidopsis …); assay: X-link IP-MS; conditions: remark: other sources report otherwise
[15] = target: T5, AT4G02020.1 SWN (Arabidopsis thaliana) (UniProt Q9ZSM8); assay: X-link IP-MS
T5 sequence (looked up): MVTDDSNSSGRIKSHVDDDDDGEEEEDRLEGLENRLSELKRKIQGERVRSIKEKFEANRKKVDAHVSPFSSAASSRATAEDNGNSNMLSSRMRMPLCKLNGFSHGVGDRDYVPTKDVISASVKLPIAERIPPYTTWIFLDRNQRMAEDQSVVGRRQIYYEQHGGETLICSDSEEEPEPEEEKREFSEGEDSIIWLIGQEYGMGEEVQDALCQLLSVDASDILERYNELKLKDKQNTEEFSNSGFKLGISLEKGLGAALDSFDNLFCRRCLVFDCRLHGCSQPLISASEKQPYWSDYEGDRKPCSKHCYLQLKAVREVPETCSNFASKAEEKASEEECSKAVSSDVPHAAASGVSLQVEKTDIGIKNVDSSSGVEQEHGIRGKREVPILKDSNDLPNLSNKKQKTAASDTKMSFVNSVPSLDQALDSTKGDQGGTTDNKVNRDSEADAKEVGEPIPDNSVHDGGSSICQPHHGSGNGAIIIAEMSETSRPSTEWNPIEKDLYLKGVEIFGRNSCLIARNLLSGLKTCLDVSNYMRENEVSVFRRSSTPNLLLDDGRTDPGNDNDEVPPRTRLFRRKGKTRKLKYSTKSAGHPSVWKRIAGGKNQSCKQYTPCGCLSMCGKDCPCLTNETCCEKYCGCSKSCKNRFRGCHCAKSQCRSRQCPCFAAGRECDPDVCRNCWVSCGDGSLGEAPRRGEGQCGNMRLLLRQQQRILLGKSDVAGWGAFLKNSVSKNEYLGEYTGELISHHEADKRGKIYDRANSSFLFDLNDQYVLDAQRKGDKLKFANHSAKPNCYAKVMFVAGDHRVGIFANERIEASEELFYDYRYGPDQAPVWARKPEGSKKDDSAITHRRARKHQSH

[16] = target: T5, AT4G02020.1 SWN (Arabidopsis thaliana); assay: IP-MS rep 1
[17] = target: T5, AT4G02020.1 SWN (Arabidopsis thaliana); assay: IP-MS rep 2

Chain of AT4G20400.1 JMJ14 (Arabidopsis thaliana), Q8GUI6 (Q8GUI6 whole entry): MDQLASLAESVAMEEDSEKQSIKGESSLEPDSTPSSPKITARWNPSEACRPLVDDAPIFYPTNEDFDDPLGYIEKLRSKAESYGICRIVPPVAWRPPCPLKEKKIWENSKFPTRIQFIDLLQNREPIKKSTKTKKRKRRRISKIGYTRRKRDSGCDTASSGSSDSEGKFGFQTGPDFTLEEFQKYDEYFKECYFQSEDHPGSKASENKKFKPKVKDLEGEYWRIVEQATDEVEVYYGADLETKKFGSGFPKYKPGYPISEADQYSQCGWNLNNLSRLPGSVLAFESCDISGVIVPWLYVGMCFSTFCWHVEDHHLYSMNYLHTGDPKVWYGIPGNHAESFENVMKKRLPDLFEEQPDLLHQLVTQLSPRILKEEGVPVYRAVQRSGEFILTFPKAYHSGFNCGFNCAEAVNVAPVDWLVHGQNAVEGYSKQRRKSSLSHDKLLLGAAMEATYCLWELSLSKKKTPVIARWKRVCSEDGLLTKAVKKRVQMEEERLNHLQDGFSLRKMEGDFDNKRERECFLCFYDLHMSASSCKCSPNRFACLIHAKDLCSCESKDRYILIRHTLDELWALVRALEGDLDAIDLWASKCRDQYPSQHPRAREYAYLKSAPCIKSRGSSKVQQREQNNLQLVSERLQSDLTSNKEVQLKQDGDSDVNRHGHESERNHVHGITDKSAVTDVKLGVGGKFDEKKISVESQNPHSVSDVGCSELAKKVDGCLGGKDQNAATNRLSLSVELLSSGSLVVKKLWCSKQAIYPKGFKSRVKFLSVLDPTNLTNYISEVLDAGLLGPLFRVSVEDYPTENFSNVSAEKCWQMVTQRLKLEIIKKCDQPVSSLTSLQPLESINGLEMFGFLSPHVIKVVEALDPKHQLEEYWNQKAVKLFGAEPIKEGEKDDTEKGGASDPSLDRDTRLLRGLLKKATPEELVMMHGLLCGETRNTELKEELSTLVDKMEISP

B1: FLAG-TRB3 (protein, not shown: small tags and cut ends)
chain: MGAPKLKWTPEEETALKAGVLKHGTGKWRTILSDPVYSTILKSRSNVDLKDKWRNISVTALWGSRKKAKLALKRTPLSGSRQDDNATAITIVSLANGDVGGQQIDAPSPPAGSCEPPRPSTSVDKIILEAITSLKRPFGPDGKSILMYIEENFKMQPDMKRLVTSRLKYLTNVGTLVKKKHKYRISQNYMAEGEGQRSPQLLLEGNKENTPKPEENGVKNLTKSQVGGEVMIMGMTEKEAAAAAARAVAEAEFAMAEAEEAAREADKAEAEAEAAHIFAKAAMKAVKYRMHSQTR
**Q.** Which IP-MS count [1] does the source give for B1 here?
**A.** 11

**Q.** What about the IP-MS count [2] of the same binder?
**A.** 12

**Q.** And the IP-MS count [3]?
**A.** 11

B2: FLAG-TRB3, Q9M2X3 1-295 (protein, not shown: small tags and cut ends)
chain: MGAPKLKWTPEEETALKAGVLKHGTGKWRTILSDPVYSTILKSRSNVDLKDKWRNISVTALWGSRKKAKLALKRTPLSGSRQDDNATAITIVSLANGDVGGQQIDAPSPPAGSCEPPRPSTSVDKIILEAITSLKRPFGPDGKSILMYIEENFKMQPDMKRLVTSRLKYLTNVGTLVKKKHKYRISQNYMAEGEGQRSPQLLLEGNKENTPKPEENGVKNLTKSQVGGEVMIMGMTEKEAAAAAARAVAEAEFAMAEAEEAAREADKAEAEAEAAHIFAKAAMKAVKYRMHSQTR
**Q.** With B2 as the binder, how does the IP-MS count [4] read?
**A.** 13

**Q.** What about the IP-MS count [5] of the same binder?
**A.** 12

**Q.** And the IP-MS count [6]?
**A.** 72

B3: FLAG-TRB2 (protein, not shown: small tags and cut ends)
chain: MGAPKQKWTPEEEAALKAGVLKHGTGKWRTILSDSEFSLILKSRSNVDLKDKWRNISVTALWGSRKKAKLALKRTPPGTKQDDNNTALTIVALTNDDERAKPTSPGGSGGGSPRTCASKRSITSLDKIIFEAITNLRELRGSDRTSIFLYIEENFKTPPNMKRHVAVRLKHLSSNGTLVKIKHKYRFSSNFIPAGARQKAPQLFLEGNNKKDPTKPEENGANSLTKFRVDGELYMIKGMTAQEAAEAAARAVAEAEFAITEAEQAAKEAERAEAEAEAAQIFAKAAMKALKFRIRNHPW
**Q.** What does the source list for B3?
**A.** IP-MS count [7]: 4; IP-MS count [8]: 0; IP-MS count [9]: 0

B4: TRBIP2 (bait of the TRBIP2 IP-MS) (protein, not shown: small tags and cut ends)
chain: MATNACLESDSLLPPRKRLLAGFKNQNSRISNESPSPPFASSSSSTTTSNGSSASAVVHTHHLDHLLNDQTRSPEELAQASKATAALAVKVAKAARATANEKAIIASKAVAAAKNALELFASFPAAETVSCKEPRLIRAINNSPRVLTDCSGHRNKKQKTLTSTMNDGNDVAGVVDSDDGTRVNGKLLLCDNTLKEKTEEESSSLGKRRGRVKLPLSMCAYKDQENGITLEENNLSVSKSEGYNGGVAQVIERPSWKCQDLKSPECVKQNKVVRS
**Q.** Which IP-MS count [10] does the source give for B4 here?
**A.** 2

**Q.** And the IP-MS count [11]?
**A.** 1

B5: FLAG-TRB1, Q8VWK4 1-300 (protein, not shown: small tags and cut ends)
chain: MGAPKQKWTQEEESALKSGVIKHGPGKWRTILKDPEFSGVLYLRSNVDLKDKWRNMSVMANGWGSREKSRLAVKRTFSLPKQEENSLALTNSLQSDEENVDATSGLQVSSNPPPRRPNVRLDSLIMEAIATLKEPGGCNKTTIGAYIEDQYHAPPDFKRLLSTKLKYLTSCGKLVKVKRKYRIPNSTPLSSHRRKGLGVFGGKQRTSSLPSPKTDIDEVNFQTRSQIDTEIARMKSMNVHEAAAVAAQAVAEAEAAMAEAEEAAKEAEAAEAEAEAAQAFAEEASKTLKGRNICKMMIRA
**Q.** Which results are given for B5?
**A.** IP-MS count [12]: 0; IP-MS count [4]: 34; IP-MS count [13]: 1; IP-MS count [5]: 35; IP-MS count [14]: 0; IP-MS count [6]: 77

B6: FLAG-TRB1 (protein, not shown: small tags and cut ends)
chain: MGAPKQKWTQEEESALKSGVIKHGPGKWRTILKDPEFSGVLYLRSNVDLKDKWRNMSVMANGWGSREKSRLAVKRTFSLPKQEENSLALTNSLQSDEENVDATSGLQVSSNPPPRRPNVRLDSLIMEAIATLKEPGGCNKTTIGAYIEDQYHAPPDFKRLLSTKLKYLTSCGKLVKVKRKYRIPNSTPLSSHRRKGLGVFGGKQRTSSLPSPKTDIDEVNFQTRSQIDTEIARMKSMNVHEAAAVAAQAVAEAEAAMAEAEEAAKEAEAAEAEAEAAQAFAEEASKTLKGRNICKMMIRA
**Q.** How did the IP-MS count [15] turn out when B6 was run?
**A.** 2

**Q.** And the IP-MS count [16]?
**A.** 1

**Q.** What about the IP-MS count [17] of the same binder?
**A.** 0
